Earlier results, collected in patent publication US4786501A, “Cylindrical implants for the controlled release of growth hormones” (International Minerals & Chemical Corp., priority 1985, dated 1988).

Experiments:
cows = settings: field trials, Machlin 1973
young swine = settings: field trials

B1: BGH: bovine growth hormone purified from pituitary glands, protein containing 191 amino acid residues (protein, UniProt P01246 27-217, looked up)
Somatotropin: AFPAMSLSGLFANAVLRAQHLHQLAADTFKEFERTYIPEGQRYSIQNTQVAFCFSETIPAPTGKNEAQQKSDLELLRISLLLIQSWLGPLQFLSRVFTNSLVFGTSDRVYEKLKDLEEGILALMRELEDGTPRAGQILKQTYDKFDTNMRSDDALLKNYGLLSCFRKDLHKTETYLRVMKCRRFGEASCAF
For B1, the feed-to-milk conversion (cows) is listed as “improved feed-to-milk conversion” and the milk production (cows) is listed as “increased milk production”.

B2: native PGH: native porcine growth hormone, protein containing 191 amino acid residues (protein, UniProt P01248 27-216, looked up)
Somatotropin: FPAMPLSSLFANAVLRAQHLHQLAADTYKEFERAYIPEGQRYSIQNAQAAFCFSETIPAPTGKDEAQQRSDVELLRFSLLLIQSWLGPVQFLSRVFTNSLVFGTSDRVYEKLKDLEEGIQALMRELEDGSPRAGQILKQTYDKFDTNLRSDDALLKNYGLLSCFKKDLHKAETYLRVMKCRRFVESSCAF
For B2, the growth rates (young swine) is listed as “increased growth rates”.
